{"source": "patent US20030022265", "key": {"[1]": {"molecular_target": "T1, fusion protein comprising Golgi recognition signal and transmembrane domain of yeast Golgi protein Ste13, cleavage site of yeast α-factor, and yeast invertase (UniProt P33894)", "T1 sequence": "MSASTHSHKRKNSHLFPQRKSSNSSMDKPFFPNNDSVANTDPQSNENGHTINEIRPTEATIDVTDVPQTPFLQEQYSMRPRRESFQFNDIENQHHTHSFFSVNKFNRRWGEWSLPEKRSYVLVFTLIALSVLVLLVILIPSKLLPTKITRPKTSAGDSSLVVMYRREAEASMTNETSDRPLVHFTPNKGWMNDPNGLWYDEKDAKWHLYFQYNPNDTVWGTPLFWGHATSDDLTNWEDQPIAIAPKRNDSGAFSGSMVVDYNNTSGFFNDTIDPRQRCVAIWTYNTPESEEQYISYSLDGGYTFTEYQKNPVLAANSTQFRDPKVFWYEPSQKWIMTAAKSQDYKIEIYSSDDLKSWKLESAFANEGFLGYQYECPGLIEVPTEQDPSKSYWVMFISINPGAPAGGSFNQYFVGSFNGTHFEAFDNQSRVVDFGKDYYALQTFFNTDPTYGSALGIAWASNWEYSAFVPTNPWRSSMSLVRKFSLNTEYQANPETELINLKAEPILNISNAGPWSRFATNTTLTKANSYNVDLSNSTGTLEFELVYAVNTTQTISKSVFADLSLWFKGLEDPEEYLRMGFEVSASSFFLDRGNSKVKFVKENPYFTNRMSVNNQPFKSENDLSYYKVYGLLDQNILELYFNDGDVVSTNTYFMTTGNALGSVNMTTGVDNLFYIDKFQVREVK"}, "[2]": {"tested_on": "plasmid library of pADH-SteSubInv with random substitution of the 5th and 6th amino acids of cleavage region of α-factor"}, "[3]": {"tested_on": "product of plasmid pADH-SteInv"}}, "data": [{"substance": "Kex2", "values": [{"measurement": "viability of cotransformed suc2, kex2 mutant yeast on sucrose-containing plate", "setting": "[1]", "result": "transformants of test group 1 were survived both on glucose-containing and sucrose-containing plates"}, {"measurement": "residues found at the randomised substrate positions in colonies grown on sucrose plates", "setting": "[2]", "result": "Various amino acids such as D, E, A, V, P, S, Q, K, R, and H were found at the 6th amino acid, while, solely R was found at the 5th amino acid"}, {"measurement": "viability of cotransformed suc2, kex2 mutant yeast on sucrose-containing plate", "setting": "[3]", "result": "transformants of test groups 2 to 4 were not able to grow on sucrose plates"}]}]}
